What was measured:
Experiment in all cases: co-IP with anti-FLAG, C-FLAG B3GNT2, mass spectrometry
[1] = target: RPS14 (human, UniProt P62263 2-151)
[2] = target: RPL23 (human, UniProt P62829 1-140)
[3] = target: T1, FLG (human, UniProt P20930 1-4061, limits assumed)
T1 construct: also called NP_002007.1

[4] = target: T2, DDX17 (human, UniProt Q92841 1-729, limits assumed)
T2 construct: also called NP_001091974.1

[5] = target: P0AA25.2 (UniProt P0AA25 2-109 = thioredoxin)
[6] = target: T3, MMS19 (human, UniProt Q96T76-9 2-987, limits assumed)
T3 construct: also called NP_001276332.1 (+9)
T3 sequence (looked up): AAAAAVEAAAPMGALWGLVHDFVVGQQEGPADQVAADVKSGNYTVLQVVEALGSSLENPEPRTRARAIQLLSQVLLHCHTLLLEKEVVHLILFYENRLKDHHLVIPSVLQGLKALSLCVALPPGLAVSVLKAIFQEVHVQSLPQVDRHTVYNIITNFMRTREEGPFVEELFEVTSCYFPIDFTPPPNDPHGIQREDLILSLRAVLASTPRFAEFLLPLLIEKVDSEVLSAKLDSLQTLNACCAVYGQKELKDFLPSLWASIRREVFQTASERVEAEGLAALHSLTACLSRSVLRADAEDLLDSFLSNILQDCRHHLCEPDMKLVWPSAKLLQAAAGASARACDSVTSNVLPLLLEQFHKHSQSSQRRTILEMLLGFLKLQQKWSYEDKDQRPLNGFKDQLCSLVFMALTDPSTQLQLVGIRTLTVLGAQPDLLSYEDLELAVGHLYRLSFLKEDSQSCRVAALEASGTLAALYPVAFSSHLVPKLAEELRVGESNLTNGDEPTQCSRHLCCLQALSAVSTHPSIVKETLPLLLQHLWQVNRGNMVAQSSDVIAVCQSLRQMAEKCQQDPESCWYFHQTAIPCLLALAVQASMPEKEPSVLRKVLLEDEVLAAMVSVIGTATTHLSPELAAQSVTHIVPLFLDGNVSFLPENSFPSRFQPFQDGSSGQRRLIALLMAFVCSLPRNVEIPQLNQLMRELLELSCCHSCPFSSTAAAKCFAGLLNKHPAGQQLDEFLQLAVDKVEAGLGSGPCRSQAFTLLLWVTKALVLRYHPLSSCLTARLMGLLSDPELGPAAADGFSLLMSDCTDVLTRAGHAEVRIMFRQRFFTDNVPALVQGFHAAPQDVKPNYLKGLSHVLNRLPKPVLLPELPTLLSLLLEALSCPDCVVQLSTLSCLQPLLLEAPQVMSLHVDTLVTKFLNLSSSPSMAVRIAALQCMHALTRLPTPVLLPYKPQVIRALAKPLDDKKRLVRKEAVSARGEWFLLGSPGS

[7] = target: T4, PUF60 (human, UniProt Q9UHX1 1-559, limits assumed)
T4 construct: also called NP_016868724.1
T4 sequence (looked up): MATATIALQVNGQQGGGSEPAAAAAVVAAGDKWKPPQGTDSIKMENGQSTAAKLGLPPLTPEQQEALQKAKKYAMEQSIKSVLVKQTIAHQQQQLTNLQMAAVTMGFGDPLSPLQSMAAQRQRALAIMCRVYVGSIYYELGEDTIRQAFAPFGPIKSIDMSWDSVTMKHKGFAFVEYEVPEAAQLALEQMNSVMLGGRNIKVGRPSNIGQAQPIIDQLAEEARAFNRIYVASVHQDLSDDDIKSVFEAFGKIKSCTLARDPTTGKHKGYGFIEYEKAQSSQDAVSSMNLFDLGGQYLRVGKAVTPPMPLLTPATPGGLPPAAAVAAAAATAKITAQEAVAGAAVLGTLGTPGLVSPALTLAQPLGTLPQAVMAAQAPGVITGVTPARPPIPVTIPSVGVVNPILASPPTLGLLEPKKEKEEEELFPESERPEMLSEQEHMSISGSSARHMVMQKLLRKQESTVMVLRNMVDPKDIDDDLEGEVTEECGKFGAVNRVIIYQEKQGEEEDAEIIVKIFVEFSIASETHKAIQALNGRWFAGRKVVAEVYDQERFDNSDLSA

[8] = target: RPL17 (human, UniProt P18621 2-184)

Chain of P0AA25.2 (P0AA25 2-109, one chain of several): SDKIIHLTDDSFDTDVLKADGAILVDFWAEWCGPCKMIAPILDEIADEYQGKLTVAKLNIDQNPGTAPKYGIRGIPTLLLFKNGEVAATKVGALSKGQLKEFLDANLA
T2 sequence (Q92841 whole entry): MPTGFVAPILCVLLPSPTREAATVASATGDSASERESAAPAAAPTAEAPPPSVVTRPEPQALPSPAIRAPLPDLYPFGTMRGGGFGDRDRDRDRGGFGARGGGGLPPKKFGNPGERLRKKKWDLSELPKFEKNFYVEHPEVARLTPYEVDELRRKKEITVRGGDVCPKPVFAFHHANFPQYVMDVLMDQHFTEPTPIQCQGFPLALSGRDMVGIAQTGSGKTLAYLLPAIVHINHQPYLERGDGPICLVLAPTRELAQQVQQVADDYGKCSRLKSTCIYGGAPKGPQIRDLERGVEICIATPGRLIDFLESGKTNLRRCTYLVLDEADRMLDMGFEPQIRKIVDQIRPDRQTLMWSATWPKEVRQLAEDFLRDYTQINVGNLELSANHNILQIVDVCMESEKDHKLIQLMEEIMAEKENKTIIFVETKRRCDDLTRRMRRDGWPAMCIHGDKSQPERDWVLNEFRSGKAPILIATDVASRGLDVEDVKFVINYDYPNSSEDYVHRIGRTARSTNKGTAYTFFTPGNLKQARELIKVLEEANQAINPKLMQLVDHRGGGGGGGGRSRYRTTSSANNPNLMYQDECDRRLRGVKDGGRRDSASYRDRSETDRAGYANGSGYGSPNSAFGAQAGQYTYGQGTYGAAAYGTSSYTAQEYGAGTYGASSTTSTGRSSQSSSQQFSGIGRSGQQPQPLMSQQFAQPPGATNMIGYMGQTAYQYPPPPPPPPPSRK
T1 sequence (P20930 whole entry): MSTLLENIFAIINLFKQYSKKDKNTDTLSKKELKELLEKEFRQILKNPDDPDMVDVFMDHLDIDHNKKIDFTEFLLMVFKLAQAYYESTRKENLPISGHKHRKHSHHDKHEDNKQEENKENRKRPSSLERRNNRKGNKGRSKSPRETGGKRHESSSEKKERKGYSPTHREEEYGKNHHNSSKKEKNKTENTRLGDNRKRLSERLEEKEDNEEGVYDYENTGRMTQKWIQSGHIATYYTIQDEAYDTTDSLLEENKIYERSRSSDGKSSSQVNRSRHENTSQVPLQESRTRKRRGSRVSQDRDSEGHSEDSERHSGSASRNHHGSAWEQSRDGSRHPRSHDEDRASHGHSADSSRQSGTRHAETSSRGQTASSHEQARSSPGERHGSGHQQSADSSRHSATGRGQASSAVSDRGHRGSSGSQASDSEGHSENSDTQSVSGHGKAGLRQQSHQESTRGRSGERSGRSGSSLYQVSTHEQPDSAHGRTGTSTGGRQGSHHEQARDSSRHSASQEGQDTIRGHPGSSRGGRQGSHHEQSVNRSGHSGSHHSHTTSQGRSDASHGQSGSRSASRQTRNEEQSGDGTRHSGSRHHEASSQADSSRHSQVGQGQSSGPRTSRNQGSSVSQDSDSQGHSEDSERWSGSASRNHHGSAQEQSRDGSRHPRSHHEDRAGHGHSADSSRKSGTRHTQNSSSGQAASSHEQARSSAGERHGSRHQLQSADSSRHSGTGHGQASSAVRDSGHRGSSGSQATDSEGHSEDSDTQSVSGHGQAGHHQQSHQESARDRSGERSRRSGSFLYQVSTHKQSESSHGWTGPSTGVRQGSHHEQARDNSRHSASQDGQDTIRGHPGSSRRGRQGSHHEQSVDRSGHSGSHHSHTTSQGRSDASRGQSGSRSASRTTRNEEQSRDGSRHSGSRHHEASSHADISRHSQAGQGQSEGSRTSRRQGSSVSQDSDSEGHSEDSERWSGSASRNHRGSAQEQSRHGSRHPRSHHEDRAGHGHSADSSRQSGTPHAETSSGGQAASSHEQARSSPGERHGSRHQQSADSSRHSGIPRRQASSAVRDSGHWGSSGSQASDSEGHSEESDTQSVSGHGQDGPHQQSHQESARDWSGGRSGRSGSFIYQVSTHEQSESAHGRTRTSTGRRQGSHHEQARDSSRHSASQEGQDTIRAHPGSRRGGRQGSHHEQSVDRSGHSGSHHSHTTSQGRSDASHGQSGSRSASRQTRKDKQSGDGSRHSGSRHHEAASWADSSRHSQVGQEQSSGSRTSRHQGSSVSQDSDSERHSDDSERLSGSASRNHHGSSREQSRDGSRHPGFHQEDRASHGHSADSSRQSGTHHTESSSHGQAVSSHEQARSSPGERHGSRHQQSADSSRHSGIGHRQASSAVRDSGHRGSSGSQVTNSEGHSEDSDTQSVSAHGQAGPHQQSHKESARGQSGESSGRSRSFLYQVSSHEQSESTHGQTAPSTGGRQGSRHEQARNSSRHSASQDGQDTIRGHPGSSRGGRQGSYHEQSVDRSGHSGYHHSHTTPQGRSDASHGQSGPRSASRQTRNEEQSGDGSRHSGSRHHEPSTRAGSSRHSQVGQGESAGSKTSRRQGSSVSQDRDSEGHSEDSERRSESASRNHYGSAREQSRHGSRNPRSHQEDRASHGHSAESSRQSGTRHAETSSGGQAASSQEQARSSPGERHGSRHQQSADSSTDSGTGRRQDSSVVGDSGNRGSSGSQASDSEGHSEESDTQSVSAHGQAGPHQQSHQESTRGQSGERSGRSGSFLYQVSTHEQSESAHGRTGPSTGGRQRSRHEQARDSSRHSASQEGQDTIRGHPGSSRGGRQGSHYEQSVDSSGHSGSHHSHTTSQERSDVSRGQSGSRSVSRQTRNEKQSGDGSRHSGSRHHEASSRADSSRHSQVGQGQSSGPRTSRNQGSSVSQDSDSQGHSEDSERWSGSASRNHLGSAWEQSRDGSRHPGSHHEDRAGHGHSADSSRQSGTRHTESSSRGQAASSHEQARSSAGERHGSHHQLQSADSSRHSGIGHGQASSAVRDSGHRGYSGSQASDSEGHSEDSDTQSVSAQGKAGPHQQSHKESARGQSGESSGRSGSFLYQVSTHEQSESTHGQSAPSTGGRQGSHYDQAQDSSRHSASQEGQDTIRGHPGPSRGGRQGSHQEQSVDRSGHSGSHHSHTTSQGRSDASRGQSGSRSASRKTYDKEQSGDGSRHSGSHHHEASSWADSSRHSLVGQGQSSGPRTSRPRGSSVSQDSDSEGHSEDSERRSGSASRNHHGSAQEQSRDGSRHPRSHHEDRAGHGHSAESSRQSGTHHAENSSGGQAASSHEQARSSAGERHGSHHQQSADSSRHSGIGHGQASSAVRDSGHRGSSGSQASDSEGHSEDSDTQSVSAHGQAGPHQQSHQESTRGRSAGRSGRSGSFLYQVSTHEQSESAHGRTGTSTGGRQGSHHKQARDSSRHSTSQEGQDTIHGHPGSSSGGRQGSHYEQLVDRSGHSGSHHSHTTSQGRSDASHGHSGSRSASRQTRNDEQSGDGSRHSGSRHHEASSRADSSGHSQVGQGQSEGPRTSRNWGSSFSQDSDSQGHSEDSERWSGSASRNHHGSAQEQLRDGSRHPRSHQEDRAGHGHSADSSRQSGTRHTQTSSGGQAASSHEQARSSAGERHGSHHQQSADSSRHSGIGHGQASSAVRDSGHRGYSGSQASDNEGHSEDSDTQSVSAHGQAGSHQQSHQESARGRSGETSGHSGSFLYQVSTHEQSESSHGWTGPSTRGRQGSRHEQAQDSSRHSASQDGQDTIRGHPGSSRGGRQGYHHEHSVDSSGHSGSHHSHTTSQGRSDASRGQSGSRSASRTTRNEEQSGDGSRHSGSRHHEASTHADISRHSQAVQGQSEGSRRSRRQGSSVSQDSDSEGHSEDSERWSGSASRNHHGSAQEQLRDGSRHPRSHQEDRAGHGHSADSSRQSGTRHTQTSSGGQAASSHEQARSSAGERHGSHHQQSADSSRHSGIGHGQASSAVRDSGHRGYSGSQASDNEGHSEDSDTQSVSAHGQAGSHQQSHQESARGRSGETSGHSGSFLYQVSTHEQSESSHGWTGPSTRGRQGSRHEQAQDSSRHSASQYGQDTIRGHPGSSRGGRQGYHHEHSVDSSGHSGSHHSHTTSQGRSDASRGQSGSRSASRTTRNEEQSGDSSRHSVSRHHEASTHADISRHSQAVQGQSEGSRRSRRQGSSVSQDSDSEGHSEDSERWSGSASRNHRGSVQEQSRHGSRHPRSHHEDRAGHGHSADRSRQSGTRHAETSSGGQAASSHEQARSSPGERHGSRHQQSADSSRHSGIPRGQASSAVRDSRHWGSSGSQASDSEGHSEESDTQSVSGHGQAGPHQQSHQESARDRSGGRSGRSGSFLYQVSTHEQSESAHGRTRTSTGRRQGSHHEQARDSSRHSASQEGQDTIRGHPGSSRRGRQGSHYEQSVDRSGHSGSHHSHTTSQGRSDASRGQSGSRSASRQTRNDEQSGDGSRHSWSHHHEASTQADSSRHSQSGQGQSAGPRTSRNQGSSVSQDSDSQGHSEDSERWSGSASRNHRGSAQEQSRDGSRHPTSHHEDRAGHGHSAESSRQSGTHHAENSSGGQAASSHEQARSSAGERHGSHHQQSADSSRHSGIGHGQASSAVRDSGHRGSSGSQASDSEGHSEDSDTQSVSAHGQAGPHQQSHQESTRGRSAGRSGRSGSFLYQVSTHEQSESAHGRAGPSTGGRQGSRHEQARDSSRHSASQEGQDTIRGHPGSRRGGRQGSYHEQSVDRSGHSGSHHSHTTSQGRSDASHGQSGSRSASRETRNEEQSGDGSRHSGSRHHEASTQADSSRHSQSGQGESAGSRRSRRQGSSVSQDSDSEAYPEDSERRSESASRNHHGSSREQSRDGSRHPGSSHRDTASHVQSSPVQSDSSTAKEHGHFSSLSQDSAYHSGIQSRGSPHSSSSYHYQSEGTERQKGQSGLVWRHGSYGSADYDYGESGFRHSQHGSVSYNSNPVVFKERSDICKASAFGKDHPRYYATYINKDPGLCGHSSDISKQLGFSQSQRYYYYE

| Binder | co-IP mass spectrometry count [1] | co-IP mass spectrometry count [2] | co-IP mass spectrometry count [3] | co-IP/MS count, C-term flag [4] | co-IP/MS count, C-term flag [5] | co-IP/MS count, C-term flag [6] | co-IP/MS count, C-term flag [7] | co-IP/MS count, C-term flag [8] |
| --- | --- | --- | --- | --- | --- | --- | --- | --- |
| C-terminal FLAG tagged B3GNT2 (enzyme, human, UniProt Q9NY97 1-397, looked up, FLAG-tagged ORF overexpressed in cells; pulled down from lysate with mouse anti-FLAG; also called C-FLAG B3GNT2; C-term flag; not shown: C-terminal FLAG tag) MSVGRRRIKLLGILMMANVFIYFIMEVSKSSSQEKNGKGEVIIPKEKFWKISTPPEAYWNREQEKLNRQYNPILSMLTNQTGEAGRLSNISHLNYCEPDLRVTSVVTGFNNLPDRFKDFLLYLRCRNYSLLIDQPDKCAKKPFLLLAIKSLTPHFARRQAIRESWGQESNAGNQTVVRVFLLGQTPPEDNHPDLSDMLKFESEKHQDILMWNYRDTFFNLSLKEVLFLRWVSTSCPDTEFVFKGDDDVFVNTHHILNYLNSLSKTKAKDLFIGDVIHNAGPHRDKKLKYYIPEVVYSGLYPPYAGGGGFLYSGHLALRLYHITDQVHLYPIDDVYTGMCLQKLGLVPEKHKGFRTFDIEEKNKNNICSYVDLMLVHSRKPQEMIDIWSQLQSAHLKC | 18 | 6 | 22 |  |  |  |  |  |
| C-terminal FLAG tagged B3GNT2 (enzyme, human, UniProt Q9NY97 1-397, looked up, FLAG-tagged ORF overexpressed in A375 cells; pulled down from the lysate with mouse anti-FLAG; also called C-FLAG B3GNT2; C-term flag; not shown: C-terminal FLAG tag) MSVGRRRIKLLGILMMANVFIYFIMEVSKSSSQEKNGKGEVIIPKEKFWKISTPPEAYWNREQEKLNRQYNPILSMLTNQTGEAGRLSNISHLNYCEPDLRVTSVVTGFNNLPDRFKDFLLYLRCRNYSLLIDQPDKCAKKPFLLLAIKSLTPHFARRQAIRESWGQESNAGNQTVVRVFLLGQTPPEDNHPDLSDMLKFESEKHQDILMWNYRDTFFNLSLKEVLFLRWVSTSCPDTEFVFKGDDDVFVNTHHILNYLNSLSKTKAKDLFIGDVIHNAGPHRDKKLKYYIPEVVYSGLYPPYAGGGGFLYSGHLALRLYHITDQVHLYPIDDVYTGMCLQKLGLVPEKHKGFRTFDIEEKNKNNICSYVDLMLVHSRKPQEMIDIWSQLQSAHLKC |  |  |  | 30 | 7 | 0 | 6 | 0 |

Source: US20240261333A1 (published 2024)
